Test results from US20040014194.

T1: Biotin-KSEVNL*DAEFRK-Fluorescein (SEQ ID NO: 3), peptide substrate derived from the sequence of "Swedish" amyloid protein peptide
T1 chain: KSEVNLDAEFRK


Target: T1, Biotin-KSEVNL*DAEFRK-Fluorescein (SEQ …)

Protein	specificity constant (kcat/Km)
ProBACE (SEQ ID NO: 2), Sf9-derived soluble pro-β-secretase (protein) TQHGIRLPLRSGLGGAPLGLRLPRETDEEPEEPGRRGSFVEMVDNLRGKSGQGYYVEMTVGSPPQTLNILVDTGSSNFAVGAAPHPFLHRYYQRQLSSTYRDLRKGVYVPYTQGKWEGELGTDLVSIPHGPNVTVRANIAAITESDKFFINGSNWEGILGLAYAEIARPDDSLEPFFDSLVKQTHVPNLFSLQLCGAGFPLNQSEVLASVGGSMIIGGIDHSLYTGSLWYTPIRREWYYEVIIVRVEINGQDLKMDCKEYNYDKSIVDSGTTNLRLPKKVFEAAVKSIKAASSTEKFPDGFWLGEQLVCWQAGTTPWNIFPVISLYLMGEVTNQSFRITILPQQYLRPVEDVATSQDDCYKFAISQSSTGTVMGAVIMEGFYVVFDRARKRIGFAVSACHVHDEFRTAAVEGPFVTLDMEDCGYNIPQTDESTLE	1500 ± 100 M⁻¹ s⁻¹
mature BACE (SEQ ID NO: 1), Sf9-derived glycosylated human β-secretase (protein) ETDEEPEEPGRRGSFVEMVDNLRGKSGQGYYVEMTVGSPPQTLNILVDTGSSNFAVGAAPHPFLHRYYQRQLSSTYRDLRKGVYVPYTQGKWEGELGTDLVSIPHGPNVTVRANIAAITESDKFFINGSNWEGILGLAYAEIARPDDSLEPFFDSLVKQTHVPNLFSLQLCGAGFPLNQSEVLASVGGSMIIGGIDHSLYTGSLWYTPIRREWYYEVIIVRVEINGQDLKMDCKEYNYDKSIVDSGTTNLRLPKKVFEAAVKSIKAASSTEKFPDGFWLGEQLVCWQAGTTPWNIFPVISLYLMGEVTNQSFRITILPQQYLRPVEDVATSQDDCYKFAISQSSTGTVMGAVIMEGFYVVFDRARKRIGFAVSACHVHDEFRTAAVEGPFVTLDMEDCGYNIPQTDESTLE	1500 ± 100 M⁻¹ s⁻¹
